From paper PMC5175136, “Structural basis of the substrate preference towards CMP for a thymidylate synthase MilA involved in mildiomycin biosynthesis” (Scientific Reports, 2016)

Legend:
[1] = target: T1, MilA (Streptomyces rimofaciens, UniProt B4Y380); assay: X-ray crystal structure, […] Å; type: binding; conditions: crystals grown with hmCMP, pH 6.5, 14 °C; active site
T1 construct: full-length, C-terminal 6xHis tag (LEHHHHHH) kept, pET28a, expressed in E. coli BL21(DE3); homodimer, active site from both subunits
T1 sequence (B4Y380 1-334): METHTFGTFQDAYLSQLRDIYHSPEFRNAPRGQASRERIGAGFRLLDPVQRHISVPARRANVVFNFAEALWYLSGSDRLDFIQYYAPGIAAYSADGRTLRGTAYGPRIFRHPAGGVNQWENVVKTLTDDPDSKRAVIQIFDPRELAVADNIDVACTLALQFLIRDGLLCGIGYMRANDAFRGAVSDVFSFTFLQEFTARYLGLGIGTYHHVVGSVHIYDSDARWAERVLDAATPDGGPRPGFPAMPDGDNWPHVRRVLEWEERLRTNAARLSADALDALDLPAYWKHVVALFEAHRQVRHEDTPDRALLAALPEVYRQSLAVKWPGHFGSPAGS

[2] = target: T2, MilA (Streptomyces rimofaciens, UniProt B4Y380, K133R/A176S); assay: HPLC/LC-MS of CMP and dCMP competition reaction; type: biochemical; conditions: 1 mM CMP and dCMP together, 2 mM tetrahydrofolate, 15 mM paraformaldehyde, pH 7.5, 37 °C
T2 construct: full-length, C-terminal 6xHis tag (LEHHHHHH) kept, pET28a, expressed in E. coli BL21(DE3); homodimer, active site from both subunits

[3] = target: T3, MilA (Streptomyces rimofaciens, UniProt B4Y380, A176S); assay: HPLC/LC-MS of CMP and dCMP competition reaction; type: biochemical; conditions: 1 mM CMP and dCMP together, 2 mM tetrahydrofolate, 15 mM paraformaldehyde, pH 7.5, 37 °C
T3 construct: full-length, C-terminal 6xHis tag (LEHHHHHH) kept, pET28a, expressed in E. coli BL21(DE3); homodimer, active site from both subunits

[4] = target: the molecule itself; assay: crystal structure; hanging-drop vapor diffusion at 14 °C; apo MilA (PEG 3350, lithium sulfate, Tris-HCl pH 8.5) and complexes with CMP, dCMP or hmCMP (sodium cacodylate pH 6.5, sodium acetate); space group P3(2)21, two molecules in the asymmetric unit related by a non-crystallographic twofold rotation
[5] = substrate: Nc1ccn([C@H]2C[C@H](O)[C@@H](COP(=O)(O)O)O2)c(=O)n1; assay: HPLC of hmdCMP formation, Michaelis-Menten fit; type: biochemical, Streptomyces rimofaciens; conditions: CH2THF co-substrate saturating (from 2 mM tetrahydrofolate), 50 mM Tris-HCl pH 7.5, 37 °C
Description: HPLC of […] formation, Michaelis-Menten fit on MilA

[6] = substrate: Nc1ccn([C@@H]2O[C@H](COP(=O)(O)O)[C@@H](O)[C@H]2O)c(=O)n1; assay: HPLC of hmCMP formation, Michaelis-Menten fit; type: biochemical, Streptomyces rimofaciens; conditions: CH2THF co-substrate saturating (from 2 mM tetrahydrofolate), 50 mM Tris-HCl pH 7.5, 37 °C
Description: HPLC of hmCMP formation, Michaelis-Menten fit on MilA

[7] = crystal structure of complex at 2.10 Å
[8] = crystal structure of complex at 1.65 Å

T3 sequence (B4Y380 entry or part of it A176S): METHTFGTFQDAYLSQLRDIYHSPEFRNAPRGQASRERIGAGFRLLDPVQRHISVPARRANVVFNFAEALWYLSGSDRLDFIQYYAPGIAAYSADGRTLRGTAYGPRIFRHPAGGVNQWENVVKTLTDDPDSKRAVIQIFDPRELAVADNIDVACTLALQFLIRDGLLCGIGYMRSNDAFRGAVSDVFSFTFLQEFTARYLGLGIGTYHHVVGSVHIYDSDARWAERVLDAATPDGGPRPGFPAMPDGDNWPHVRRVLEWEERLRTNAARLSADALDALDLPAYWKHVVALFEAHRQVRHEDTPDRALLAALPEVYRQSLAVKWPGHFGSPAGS
T2 sequence (B4Y380 entry or part of it K133R/A176S): as the sequence (B4Y380 entry or part of it A176S) above, with K133R counted along it

Q: With `Nc1nc(=O)n([C@@H]2O[C@H](COP(=O)(O)O)[C@@H](O)[C@H]2O)cc1CO` [hmCMP] as the molecule, how does the “X-ray crystal structure, 1.80 Å” value [1] read?
A: MilA‒hmCMP complexes have been deposited in the Protein Data Bank

Q: With `Nc1ccn([C@H]2C[C@H](O)[C@@H](COP(=O)(O)O)O2)c(=O)n1` [dCMP] as the molecule, how does the “HPLC/LC-MS of CMP and dCMP competition reaction” value (from here on “HPLC/LC-MS”) [2] read?
A: double mutant MilA A176S/K133R, but its efficiency to dCMP is slightly affected

Q: What about the “HPLC/LC-MS” value [3] of the same molecule?
A: significantly enhanced its catalytic efficiency toward dCMP

Q: `Nc1ccn([C@@H]2O[C@H](COP(=O)(O)O)[C@@H](O)[C@H]2O)c(=O)n1` [CMP] was tested. Which “HPLC/LC-MS” value [3] did it give?
A: MilA-A176S could still catalyze the hydroxymethylation reaction of CMP

B1: MilA, CMP hydroxymethylase from Streptomyces rimofaciens ZJU5119 (wild type, C-terminally His-tagged) (enzyme, UniProt B4Y380 1-334, looked up)
chain: T1 sequence (B4Y380 1-334)
notes: MilA, CMP hydroxymethylase of the mildiomycin biosynthetic gene cluster, Streptomyces rimofaciens ZJU5119; full-length, cloned into pET28a; They are disordered in the crystal; also called WT MilA; MilA-WT; source: E. coli BL21(DE3), purified (Ni-NTA, Superdex 200 gel filtration); not shown: His6, C-terminal, kept
Q: With B1 as the molecule, how does the “stoichiometry N” value [4] read?
A: 2

Q: And the Km [5]?
A: 0.245 (0.0589) mM

Q: What about the kcat [5, 7] of the same molecule?
A: 0.032 s⁻¹

Q: What about the kcat/Km [5, 7] of the same molecule?
A: 131 M⁻¹ s⁻¹

Q: What about the Km [6] of the same molecule?
A: 0.0719 (0.0076) mM

Q: What about the kcat [6, 8] of the same molecule?
A: 0.047 s⁻¹

Q: And the kcat/Km [6, 8]?
A: 653 M⁻¹ s⁻¹
